Data published in PMC5030251, “Metal-Induced Stabilization and Activation of Plasmid Replication Initiator RepB” (Frontiers in Molecular Biosciences, 2016).

Target: the molecule itself
Assay: AUC; sedimentation equilibrium; RepB6 samples heated to temperatures from 25°C up to 45°C (end of the first thermal transition)

B1: RepB, replication initiator protein of the streptococcal plasmid pMV158 (enzyme, UniProt P13921 1-210, looked up)
chain: MAKEKARYFTFLLYPESIPSDWELKLETLGVPMAISPLHDKDKSSIKGQKYKKAHYHVLYIAKNPVTADSVRKKIKLLLGEKSLAMVQVVLNVENMYLYLTHESKDAIAKKKHVYDKADIKLINNFDIDRYVTLDVEEKTELFNVVVSLIRAYTLQNIFDLYDFIDENGETYGLTINLVNEVIAGKTGFMKLLFDGAYQRSKRGTKNEER
notes: RepB, replication initiator (Rep) protein encoded by plasmid pMV158; 210 amino acid polypeptide purified as a hexamer; In assay a2 the protein had been heated beyond its first, irreversible thermal transition (OBD denatured); also called RepB6; full-length hexameric RepB; source: purified as described previously (Ruiz-Masó et al., 2004; Boer et al., 2009)
stoichiometry N: ~6
